Source: PMC7951984
Ends that are not written are not given here.

Target: Plutella xylostella tachykinin receptor (PxTKR) (Plutella xylostella)

Row | EC50 of the cAMP response (cAMP-Glo assay) of HEK293 cells stably expressing PxTKR, peptide from 10 pM to 100 μM | Molecule
1 | 87.7 nM | Plutella xylostella tachykinin peptide 3 (PxTK3)
2 | 32 nM | APSGFLGMR (ends and bridges not checked) [Plutella xylostella tachykinin peptide 1 (PxTK1)]
